Laboratory results taken from article PMC12589655 (Nature Communications, 2025).

Target: the molecule itself
Assay: SEC-SAXS

B1: CVS wt P3, recombinant (rabies virus CVS-11 phosphoprotein, residues 53-297) (natural protein)
chain: MKRLHLDDEKSSNLGEMVRVGEGKYREDFQMDEGEDPNLLFQSYLDNVGVQIVRQMRSGERFLKIWSQTVEEIVSYVTVNFPNPPRRSSEDKSTQTTGRELKKETTSAFSQRESQPSKARMVAQVAPGPPALEWSATNEEDDLSVEAEIAHQIAESFSKKYKFPSRSSGIFLYNFEQLKMNLDDIVKEAKNVPGVTRLAHDGSKIPLRCVLGWVALANSKKFQLLVEADKLSKIMQDDLNRYTSC
stoichiometry N: 2
